{"source": "patent US20200407673A1", "about": "“DEVICE, KIT AND METHOD FOR THREE-DIMENSIONAL CELL CULTURE” (RIGENERAND S.R.L., priority 2018, published 2020)", "molecules": {"B1": {"name": "sTRAIL: soluble TNF-related antitumor biological agent apoptosis-inducing ligand; biological cytotoxic agent (protein, UniProt P50591 39-281, looked up)", "extracellular domain": "TNELKQMQDKYSKSGIACFLKEDDSYWDPNDEESMNSPCWQVKWQLRQLVRKMILRTSEETISTVQEKQQNISPLVRERGPQRVAAHITGTRGRSNTLSSPNSKNEKALGRKINSWESSRSGHSFLSNLHLRNGELVIHEKGFYYIYSQTYFRFQEEIKENTKNDKQMVQYIYKYTSYPDPILLMKSARNSCWSKDAEYGLYSIYQGGIFELKENDRIFVSVTNEHLIDMDHEASFFGAFLVG", "modifications": "extracellular domain soluble form"}}, "system": "luciferase positive tumor cells", "assay": "efficacy of sTRAIL on luciferase-positive tumor cells grown in the three-dimensional culture device, luciferin light signal", "assay_type": "cell-based", "conditions": "cells grown 72 hours in the device, then 24 hours of treatment; luciferin substrate, luminometer", "procedure": "In the culture device 1 the tumor cells “C” which are luciferase-positive are grown for 72 hours and it is possible to monitor the extent of the growth and estimate the number of tumor cells “C” grown inside the culture device 1 by adding the luciferin substrate and detecting the light signal, as shown in the diagram in FIG. 20.\nThe effectiveness of the sTRAIL biological agent, which is added to the culture medium and is loaded inside the culture device 1, is tested on the tumor mass inside the culture device 1 evaluated at 72 hours.\nThe efficacy of the treatment is determined after 24 hours by adding the luciferin substrate which is metabolized by the viable tumor cells “C” by the action of the luciferase.\nSince the cells “C” that are dead or in apoptosis no longer produce the enzyme, they cannot metabolize the substrate and, consequently, they are no longer able to generate a light signal.", "data": [{"molecule": "B1", "values": [{"measurement": "light signal (RLUs, proportional to viable cells) after treatment", "value": "light signal is reduced in intensity"}]}]}
